The target of series [1] is T1, Agrocybe aegerita peroxygenase AaeUPO1 variant SoLo (JaWa + F191S: V57A, L67F, V75I, F191S, G241D, I248V, R257K, F311L), SEQ ID NO: 42 (Cyclocybe aegerita, UniProt B9W4V6, F234S/F354L/G284D/I291V/L110F/R300K/V100A/V118I).
T1 sequence (B9W4V6 44-371 V100A/L110F/V118I/F234S/G284D/I291V/R300K/F354L): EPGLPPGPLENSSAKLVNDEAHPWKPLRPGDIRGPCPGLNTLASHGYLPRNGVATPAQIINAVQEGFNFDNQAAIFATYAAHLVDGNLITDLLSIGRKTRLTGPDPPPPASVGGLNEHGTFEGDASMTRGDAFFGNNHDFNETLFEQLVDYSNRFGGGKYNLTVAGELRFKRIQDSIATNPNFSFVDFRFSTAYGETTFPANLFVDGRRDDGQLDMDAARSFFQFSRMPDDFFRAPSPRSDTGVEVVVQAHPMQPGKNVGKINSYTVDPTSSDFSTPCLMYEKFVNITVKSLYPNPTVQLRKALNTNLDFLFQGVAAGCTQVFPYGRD
As to the kind of experiment: Kinetic constants, SoLo variant. Conditions: SoLo vs parental JaWa, ABTS.
Source text: In order to calculate the values of Km and kcat, values of Vmax were represented at substrate concentrations and the hyperbole function was adjusted (using SigmaPlot 10.0, wherein the parameter a is equal to kcat and the parameter b, to Km).

Series [2] in a line: Turnover with 5′-hydroxypropranolol as substrate, HPLC. The class given is biochemical. Conditions: 0.03 μM enzyme, 0.4 mM 5′-hydroxypropranolol, 2 mM H2O2, absence of ascorbic acid. As to the method:
FIG. 14 Turnover rates of AaeUPO, JaWa and SoLo. […] The disappearance of the product 5′-hydroxypropranolol can be observed due to the formation of its corresponding quinone by means of the peroxidase activity of the enzyme.
(§1) The reactions were analysed by means of chromatography in reverse phase (HPLC). The equipment was composed of a tertiary pump (Varian-Agilent Technologies, USA) coupled to an autosampler (Merck Millipore, MA, USA); for the separation, a Zorbax Eclipse plus C18 column (15 cm×4.6 cm) at 40° C. was used and the detection was performed using a photodiode detector (PDA) (Varian, Agilent Technologies, USA). The mobile phase selected was a gradient from 10% methanol and 90% ddH2O (in both cases with 0.1% of acetic acid) up to 90% methanol and 10% ddH2O at a flow rate of 0.8 mL/min. The reaction was quantified at 280 nm (based on HPLC standards). […] The standard deviations were less than 5% in all cases.

Series [3] is described as follows: Thermostability assay (T50), culture supernatants, residual activity with ABTS. As to conditions: versus PaDa-I variant. The class given is physicochemical. As to the method:
An individual S. cerevisiae colony was selected with the corresponding clone (grown in a SC drop-out minimal medium plate: 100 mL of 6.7% yeast nitrogen base, 100 mL of 19.2 g/L uracil-free amino acid supplement, 100 mL of 20% glucose, 1 mL of 25 g/L chloramphenicol and ddH2O up to 1,000 mL) was inoculated in 2 mL of selective minimal medium (as in the SC plate medium, but with 20 g of bacto agar and rafinose instead of galactose) and was incubated for 48 hour at 30° C. and 220 RPM. An aliquot of this culture was taken such that, upon inoculating it in 5 mL of new minimal medium, optical density at 600 nm would have a value of 0.25 (optical density, OD600=0.25). This starter was incubated until completing two full growth cycles (between 6 and 8 hours), at which time 1 mL of cells were taken to inoculate 9 mL of expression medium in a 100 mL flask (OD600=0.1). This culture of each clone was incubated for 72 hours at 25° C. and 220 RPM (at peak UPO activity; OD600=25-30), the cells were separated by centrifugation (10 minutes at 4,500 RPM and 4° C.) and supernatant was filtered (using a glass and nitrocellulose filter with a pore size of 0.45 μm). Appropriate dilutions of the supernatants were prepared so that aliquots of 20 μL would give rise to a linear response in kinetic mode. 50 μL of supernatant were used for each point in a temperature gradient created by means of thermocyclator, from 30 to 80° C. After incubating for 10 minutes, the aliquots were cooled in ice for 10 minute and tempered at room temperature for 5 minutes. […] The thermostability values were calculated in accordance with the ratio between the residual activities incubated at different temperatures and the value of initial activity at room temperature. The value of T50 was determined as the value of the temperature at which the protein loses 50% of it initial activity after incubating for 10 minutes.
An individual S. cerevisiae colony was selected with the corresponding clone (grown on a SC drop-out minimal medium plate: 100 mL of 6.7% yeast nitrogen base, 100 mL of 19.2 g/L uracil-free amino acid supplement, 100 mL of 20% glucose, 1 mL of 25 g/L chloramphenicol and ddH2O up to 1,000 mL), was inoculated in 3 mL of selective minimal medium (like the SC plate medium, but with 20 g of bacto agar and rafinose instead of galactose) and incubated for 48 hours at 30° C. and 220 RPM. […] The thermostability values were calculated in accordance with the ratio between the residual activities incubated at different temperatures and the value of initial activity at room temperature. The value of T50 was determined as as the temperature value at which the protein loses 50% of its initial activity after incubating for […].

Series [4] can be described thus: 4-AAP assay with propranolol in the presence of ascorbic acid (peroxygenase activity). Conditions: propranolol, in the presence of ascorbic acid. In kind it is biochemical. The protocol: (§2) FIG. 9 Assay of 4-AAP (4-aminoantipyrine) with different pure UPO variants (AaeUPO1, PaDa-1 and JaWa). […] Each reaction was performed in triplicate.
(§3) The mother plates were centrifuged (Eppendorf 5810R centrifuge, Germany) for 10 minutes at 3,500 RPM and 4° C. 20 μL of supernatant of these mother plates were transferred to two replica daughter plates with the help of a Freedom EVO liquid-handling robot (Tecan, Switzerland).
(§4) Without ascorbic, the plates were incubated for 30 minutes and with ascorbic for 60 minutes. […] The plates were briefly agitated and absorbance measured at 530 nm, using a plate reader for such purpose ([…]ax Plus 384, Molecular Devices, USA). The values were normalised against the parental of each plate. To rule out false positives, re-screenings were carried out, in addition to a third re-screening wherein kinetic stability was determined (T50) (P. Molina-Espeja, et al. Appl. Environ. Microbiol. 2014. 80, 3496-3507).

Series [5] in a line: 4-AAP assay with propranolol in the absence of ascorbic acid (peroxidase activity on the product). In kind it is biochemical. The protocol:
as §2, §3, §4

A short description of series [6]: Propranolol transformation reaction analysed by HPLC-PDA. In kind it is biochemical. Conditions: absence of ascorbic acid. The protocol: FIG. 13 Chromatogram showing the enzyme reactions.
as §1

Series [7] in a line: Total turnover number (TTN) for synthesis of 5′-hydroxypropranolol from propranolol. In kind it is biochemical. As to the method:
FIG. 15 Calculation of the total turnover number (TTN) of AaeUPO and SoLo.
as §1

For the molecule `CCn1c(=NN=c2sc3cc(S(=O)(=O)O)ccc3n2CC)sc2cc(S(=O)(=O)O)ccc21` [ABTS, 2,2′-azino-bis(3-ethylbenzothiazolin-6-sulfonic acid)], the “affinity to the substrate with respect to its parental” value in series [1] is listed as “three fold worse”.

B1: SoLo: JaWa variant with added mutation F191S, SEQ ID NO: 42 (protein)
chain: MKYFPLFPTLVYAVGVVAFPDYASLAGLSQQELDAIIPTLEAREPGLPPGPLENSSAKLVNDEAHPWKPLRPGDIRGPCPGLNTLASHGYLPRNGVATPAQIINAVQEGFNFDNQAAIFATYAAHLVDGNLITDLLSIGRKTRLTGPDPPPPASVGGLNEHGTFEGDASMTRGDAFFGNNHDFNETLFEQLVDYSNRFGGGKYNLTVAGELRFKRIQDSIATNPNFSFVDFRFSTAYGETTFPANLFVDGRRDDGQLDMDAARSFFQFSRMPDDFFRAPSPRSDTGVEVVVQAHPMQPGKNVGKINSYTVDPTSSDFSTPCLMYEKFVNITVKSLYPNPTVQLRKALNTNLDFLFQGVAAGCTQVFPYGRD
Take B1: the “5′-hydroxypropranolol maintained without oxidising” value in series [2] is “approximately 50%”. Moreover, the “increase in thermostability (T50) with respect to PaDa-I” value in series [3] amounted to 2 °C. Moreover, the “peroxygenase activity on microplate higher than its parental (JaWa)” value in series [4] was 30%. Moreover, the “decrease in peroxidase activity relative to parental (JaWa)” value in series [5] is on record as “more than two fold”. The “regioselectivity against 5′-hydroxypropranolol” value in series [6] (0.03 μM enzyme, 4 mM propranolol, 2 mM H2O2) turned out to be 99%. In addition, the “amount of 5′-hydroxypropranolol produced” value in series [6] (compared among AaeUPO, PaDa-I, JaWa, SoLo) is reported as “produce the largest amount of 5′-hydroxypropranolol”. The “TTNs, With ascorbic acid” value in series [7] (0.03 μM enzyme, propranolol, 2 mM H2O2 added every 10 minutes, 4 mM ascorbic acid) is 62,000. Further, the “TTNs, Without ascorbic acid” value in series [7] (0.03 μM enzyme, propranolol, 2 mM H2O2 added every 10 minutes, absence of ascorbic acid) is on record as 45,000. In addition, the “increase in TTN for synthesis of 5′-hydroxypropranolol versus wild AaeUPO” value in series [7] (absence of antioxidants) is 15 fold.

For the origin of these results see patent US10876098B2, “Polynucleotide, host cell and a method to recombinantly produce the protein encoded by said polynucleotide having peroxygenative activity” (CONSEJO SUPERIOR DE INVESTIGACIONES CIENTIFICAS (CSIC), priority 2015, dated 2020).
